US20120149879A1 (published 2012)
One block for each binder: values may come before it.

Key:
EGFR-ECD [1] = biological target: T1, EGFR-ECD (human, UniProt P00533 25-645); assay: SPR (Biacore T100), antibody captured by anti-human IgG on CM5 chip, EGFR-ECD injected, 25 C
T1 construct: extracellular domain; Analyte in the Biacore assays; also called human epidermal growth factor receptor; HER-1
Experimental: A reference control flow cell was treated in the same way but with vehicle buffers only instead of the capturing antibody. Surfaces were blocked with an injection of 1 M ethanolamine/HCl pH 8.5. The bispecific antibodies were diluted in HBS-P and injected at a flow rate of 5 μl/min. […] The contact time (association phase) was 3 min, the dissociation time (washing with running buffer) 5 min for both molecules at a flowrate of 30 μl/min. All interactions were performed at 25° C. (standard temperature). […] Signals were detected at a rate of one signal per second. Samples were injected at increasing concentrations.

EGFR-ECD [2] = biological target: T1, EGFR-ECD; assay: SPR (Biacore T100), antibody captured by anti-human IgG on C1 chip, EGFR-ECD injected, 25 C
Experimental: Capturing anti-human IgG antibody was immobilized on the surface of a C1 biosensorchip using amine-coupling chemistry. […] A reference control flow cell was treated in the same way but with vehicle buffers only instead of the capturing antibody. Surfaces were blocked with an injection of 1 M ethanolamine/HCl pH 8.5. The bispecific antibodies were diluted in HBS-P and injected at a flow rate of 5 μl/min. The contact time (association phase) was 1 min for the antibodies at a concentration between 1 and 5 nM. EGFR-ECD was injected at increasing concentrations of 1.2, 3.7, 11.1, 33.3, 100 and 300 nM, IGF-1R at concentrations of 0.37, 1.11, 3.33, 10, 30 and 90 nM. The contact time (association phase) was 3 min, the dissociation time (washing with running buffer) 5 min for both molecules at a flowrate of 30 μl/min. All interactions were performed at 25° C. (standard temperature). The regeneration solutions of 0.85% phosphoric acid and 5 mM sodium hydroxide were injected each for 60 s at 5 μl/min flow to remove any non-covalently bound protein after each binding cycle. Signals were detected at a rate of one signal per second. Samples were injected at increasing concentrations.

IGF-1R = biological target: T2, IGF-1R (UniProt P08069 31-932, limits assumed); assay: SPR (Biacore T100), antibody captured by anti-human IgG on C1 chip, IGF-1R injected, 25 C
T2 construct: Analyte in the Biacore assays; also called IGF-IR; insulin-like growth factor I receptor

Kd (EGFR-ECD [1]): 3 nM
Kd (EGFR-ECD [2]): 0.5 nM
B1: humanized rat anti-EGFR antibody ICR62 with VH of SEQ ID NO: 8, and VL of SEQ ID NO: 10 (antibody, V domains shown)
VH: QVQLVQSGAEVKKPGSSVKVSCKASGFTFTDYKIHWVRQAPGQGLEWMGYFNPNSGYSTYAQKFQGRVTITADKSTSTAYMELSSLRSEDTAVYYCARLSPGGYYVMDAWGQGTTVTVSS
VL: DIQMTQSPSSLSASVGDRVTITCRASQGINNYLNWYQQKPGKAPKRLIYNTNNLQTGVPSRFSGSGSGTEFTLTISSLQPEDFATYYCLQHNSFPTFGQGTKLEIKR
notes: Parent monospecific 'wildtype' IgG; also called <EGFR>ICR62; <EGFR> ICR62

Kd (IGF-1R): 11 nM
Kd (EGFR-ECD [2]): 0.5 nM
B2: scFab-XGFR2_2720 (bispecific antibody)
chain 1: not shown
chain 2: DIQMTQSPSSLSASVGDRVTITCRASQGINNYLNWYQQKPGKAPKRLIYNTNNLQTGVPSRFSGSGSGTEFTLTISSLQPEDFATYYCLQHNSFPTFGQGTKLEIKRTVAAPSVFIFPPSDEQLKSGTASVVCLLNNFYPREAKVQWKVDNALQSGNSQESVTEQDSKDSTYSLSSTLTLSKADYEKHKVYACEVTHQGLSSPVTKSFNRGEC
